# Test results reported in patent JP2018108089A (dated 2018).
# T1: human tissue factor pathway inhibitor (TFPI) (human, UniProt P10646 29-304, limits assumed)
# T1 construct: Bought protein; also called human TFPI; hTFPI
# T1 sequence (looked up): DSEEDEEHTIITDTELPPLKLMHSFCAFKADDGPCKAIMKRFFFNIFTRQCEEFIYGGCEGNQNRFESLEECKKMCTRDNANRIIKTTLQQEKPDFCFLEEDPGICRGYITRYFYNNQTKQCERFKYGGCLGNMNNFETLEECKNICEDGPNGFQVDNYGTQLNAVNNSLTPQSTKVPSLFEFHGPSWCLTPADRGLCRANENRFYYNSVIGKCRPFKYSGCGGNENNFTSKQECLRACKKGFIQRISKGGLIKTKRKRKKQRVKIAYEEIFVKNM
# T2: mouse tissue factor pathway inhibitor (TFPI) (mouse, UniProt O54819 29-289, limits assumed)
# T2 construct: Bought protein; also called mouse TFPI; mTFPI
# T2 sequence (looked up): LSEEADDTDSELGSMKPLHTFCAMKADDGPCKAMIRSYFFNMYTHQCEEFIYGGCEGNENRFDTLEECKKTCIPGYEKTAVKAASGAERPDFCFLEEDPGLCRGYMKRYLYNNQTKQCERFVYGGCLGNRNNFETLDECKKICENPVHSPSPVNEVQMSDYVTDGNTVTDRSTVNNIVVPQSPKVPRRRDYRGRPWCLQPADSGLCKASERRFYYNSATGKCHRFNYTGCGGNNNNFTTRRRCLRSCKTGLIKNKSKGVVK
# Assays:
# [1] = target: T1, human tissue factor pathway inhibitor …; test: ELISA, Fab from bacterial lysate on coated human TFPI
# [2] = target: T1, human tissue factor pathway inhibitor …; test: ELISA on coated human TFPI
# [3] = target: T2, mouse tissue factor pathway inhibitor …; test: ELISA on coated mouse TFPI
# [4] = target: T1, human tissue factor pathway inhibitor …; test: ELISA on coated human TFPI, IgG against Fab
# [5] = target: T2, mouse tissue factor pathway inhibitor …; test: ELISA on coated mouse TFPI, IgG against Fab
Binder,binding result [1],EC50 [2],EC50 [3],fold improvement of EC50 against 2G6-Fab [4],fold improvement of EC50 against 2G6-Fab [5]
"TP-2G6 (Fab, V domains shown, Human Fab (HuCAL Gold, E. coli TG1); also called 2G6-Fab) VH: QVQLQQSGPGLVKPSQTLSLTCAISGDSVSSSSAAWSWIRQSPGRGLEWLGIIYYRSKWYNDYAVSVKSRITINPDTSKNQFSLQLNSVTPEDTAVYYCARHSMVGFDVWGQGTLVTVSS VL: DIVLTQSPATLSLSPGERATLSCRASQYVTSSYLAWYQQKPGQAPRLLIYGSSRATGVPARFSGSGSGTDFTLTISSLEPEDFATYYCQQYSSSPITFGQGTKVEIKR",–,0.48 nM,5.18 nM,–,–
"2G6-IgG (antibody, V domains shown, Chimeric IgG: variable regions of TP-2G6 on mouse IgG1 constant regions, expressed in HKB11 cells; also called IgG-2G6; TP-2G6 after conversion to IgG) VH: QVQLQQSGPGLVKPSQTLSLTCAISGDSVSSSSAAWSWIRQSPGRGLEWLGIIYYRSKWYNDYAVSVKSRITINPDTSKNQFSLQLNSVTPEDTAVYYCARHSMVGFDVWGQGTLVTVSS VL: DIVLTQSPATLSLSPGERATLSCRASQYVTSSYLAWYQQKPGQAPRLLIYGSSRATGVPARFSGSGSGTDFTLTISSLEPEDFATYYCQQYSSSPITFGQGTKVEIKR",–,0.22 nM,0.51 nM,2 fold,10 fold

# Next, values leading:
binding result [1],EC50 [2],EC50 [3],fold improvement of EC50 against 2G6-Fab [4],fold improvement of EC50 against 2G6-Fab [5],Binder
binds,–,–,–,–,"TP-4B7 (Fab, V domains shown, Human Fab (HuCAL Gold, E. coli TG1)) VH: QVQLQQSGPGLVKPSQTLSLTCAISGDSVSSNSAAWSWIRQSPGRGLEWLGIIYKRSKWYNDYAVSVKSRITINPDTSKNQFSLQLNSVTPEDTAVYYCARWHSDKHWGFDYWGQGTLVTVSS VL: DIVMTQSPLSLPVTPGEPASISCRSSQSLVFSDGNTYLNWYLQKPGQSPQLLIYKGSNRASGVPDRFSGSGSGTDFTLKISRVEAEDVGVYYCQQYDSYPLTFGQGTKVEIKR"
binds,–,–,–,–,"TP-2A8 (Fab, V domains shown, Human Fab (HuCAL Gold, E. coli TG1); also called Fab-2A8; TP-2A8-Fab) VH: QVQLVESGGGLVQPGGSLRLSCAASGFTFRSYGMSWVRQAPGKGLEWVSSIRGSSSSTYYADSVKGRFTISRDNSKNTLYLQMNSLRAEDTAVYYCARKYRYWFDYWGQGTLVTVSS VL: DIELTQPPSVSVAPGQTARISCSGDNLRNYYAHWYQQKPGQAPVVVIYYDNNRPSGIPERFSGSNSGNTATLTISGTQAEDEADYYCQSWDDGVPVFGGGTKLTVLG"
